Data published in IntAct's records for PubMed 18385733.

B1: Mediator of RNA polymerase II transcription subunit 15 (Saccharomyces cerevisiae), P19659 (parent)
chain: MSAAPVQDKDTLSNAERAKNVNGLLQVLMDINTLNGGSSDTADKIRIHAKNFEAALFAKSSSKKEYMDSMNEKVAVMRNTYNTRKNAVTAAAANNNIKPVEQHHINNLKNSGNSANNMNVNMNLNPQMFLNQQAQARQQVAQQLRNQQQQQQQQQQQQRRQLTPQQQQLVNQMKVAPIPKQLLQRIPNIPPNINTWQQVTALAQQKLLTPQDMEAAKEVYKIHQQLLFKARLQQQQAQAQAQANNNNNGLPQNGNINNNINIPQQQQMQPPNSSANNNPLQQQSSQNTVPNVLNQINQIFSPEEQRSLLQEAIETCKNFEKTQLGSTMTEPVKQSFIRKYINQKALRKIQALRDVKNNNNANNNGSNLQRAQNVPMNIIQQQQQQNTNNNDTIATSATPNAAAFSQQQNASSKLYQMQQQQQAQAQAQAQAQAQAQAQAQAQAAQAAQAQAQAQAQAQAQAQAQAQAQAQAQAQAQAQAQAHAQHQPSQQPQQAQQQPNPLHGLTPTAKDVEVIKQLSLDASKTNLRLTDVTNSLSNEEKEKIKMKLKQGQKLFVQVSNFAPQVYIITKNENFLKEVFQLRIFVKEILEKCAEGIFVVKLDTVDRLIIKYQKYWESMRIQILRRQAILRQQQQMANNNGNPGTTSTGNNNNIATQQNMQQSLQQMQHLQQLKMQQQQQQQQQQQQQQQQQQQQQQQHIYPSSTPGVANYSAMANAPGNNIPYMNHKNTSSMDFLNSMENTPKVPVSAAATPSLNKTINGKVNGRTKSNTIPVTSIPSTNKKLSISNAASQQPTPRSASNTAKSTPNTNPSPLKTQTKNGTPNPNNMKTVQSPMGAQPSYNSAIIENAFRKEELLLKDLEIRKLEISSRFKHRQEIFKDSPMDLFMSTLGDCLGIKDEEMLTSCTIPKAVVDHINGSGKRKPTKAAQRARDQDSIDISIKDNKLVMKSKFNKSNRSYSIALSNVAAIFKGIGGNFKDLSTLVHSSSPSTSSNMDVGNPRKRKASVLEISPQDSIASVLSPDSNIMSDSKKIKVDSPDDPFMTKSGATTSEKQEVTNEAPFLTSGTSSEQFNVWDWNNWTSAT
partner: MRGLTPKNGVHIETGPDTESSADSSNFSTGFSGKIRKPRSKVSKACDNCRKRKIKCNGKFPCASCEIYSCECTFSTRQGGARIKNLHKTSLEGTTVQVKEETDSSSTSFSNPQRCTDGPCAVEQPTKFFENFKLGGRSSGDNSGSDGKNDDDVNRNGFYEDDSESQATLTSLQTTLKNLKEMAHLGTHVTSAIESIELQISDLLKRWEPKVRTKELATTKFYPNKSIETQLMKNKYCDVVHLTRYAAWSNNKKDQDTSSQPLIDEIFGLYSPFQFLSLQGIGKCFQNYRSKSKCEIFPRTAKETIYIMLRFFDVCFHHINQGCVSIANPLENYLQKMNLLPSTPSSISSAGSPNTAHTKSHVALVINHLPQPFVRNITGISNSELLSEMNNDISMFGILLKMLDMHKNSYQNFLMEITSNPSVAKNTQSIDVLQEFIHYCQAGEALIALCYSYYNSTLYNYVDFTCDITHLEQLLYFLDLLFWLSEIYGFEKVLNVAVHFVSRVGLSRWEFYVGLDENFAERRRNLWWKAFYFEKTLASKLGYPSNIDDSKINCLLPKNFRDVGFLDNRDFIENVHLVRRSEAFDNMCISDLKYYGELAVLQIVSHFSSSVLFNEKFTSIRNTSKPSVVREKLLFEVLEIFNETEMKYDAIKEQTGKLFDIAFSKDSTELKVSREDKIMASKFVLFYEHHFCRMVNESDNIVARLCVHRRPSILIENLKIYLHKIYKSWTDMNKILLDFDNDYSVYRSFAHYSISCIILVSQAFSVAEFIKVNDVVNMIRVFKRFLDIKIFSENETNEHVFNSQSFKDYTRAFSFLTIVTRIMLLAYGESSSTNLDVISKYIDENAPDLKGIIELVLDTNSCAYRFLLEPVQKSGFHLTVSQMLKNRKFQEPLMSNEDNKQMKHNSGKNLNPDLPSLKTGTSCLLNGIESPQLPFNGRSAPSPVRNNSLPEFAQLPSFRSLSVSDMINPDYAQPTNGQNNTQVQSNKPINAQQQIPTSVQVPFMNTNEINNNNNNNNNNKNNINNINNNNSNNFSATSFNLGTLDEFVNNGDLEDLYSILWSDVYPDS

Variants of: B1
Details: with pdr1_yeast PDR1, P12383

Effect of a mutation on the interaction, disrupting interaction:
V27D
V76D
K63Q
M77E
S69D
R78L
